Laboratory results taken from IntAct's records for PubMed 9341158.

B1: AP-2 complex subunit mu (Rattus norvegicus (Rat)), P84092 (parent)
chain: MIGGLFIYNHKGEVLISRVYRDDIGRNAVDAFRVNVIHARQQVRSPVTNIARTSFFHVKRSNIWLAAVTKQNVNAAMVFEFLYKMCDVMAAYFGKISEENIKNNFVLIYELLDEILDFGYPQNSETGALKTFITQQGIKSQHQTKEEQSQITSQVTGQIGWRREGIKYRRNELFLDVLESVNLLMSPQGQVLSAHVSGRVVMKSYLSGMPECKFGMNDKIVIEKQGKGTADETSKSGKQSIAIDDCTFHQCVRLSKFDSERSISFIPPDGEFELMRYRTTKDIILPFRVIPLVREVGRTKLEVKVVIKSNFKPSLLAQKIEVRIPTPLNTSGVQVICMKGKAKYKASENAIVWKIKRMAGMKESQISAEIELLPTNDKKKWARPPISMNFEVPFAPSGLKVRYLKVFEPKLNYSDHDVIKWVRYIGRSGIYETRC

Variants of: B1
Settings: with tgon3_rat Ttgn1, P19814
Sequence of tgon3_rat Ttgn1, P19814 (P19814 whole entry): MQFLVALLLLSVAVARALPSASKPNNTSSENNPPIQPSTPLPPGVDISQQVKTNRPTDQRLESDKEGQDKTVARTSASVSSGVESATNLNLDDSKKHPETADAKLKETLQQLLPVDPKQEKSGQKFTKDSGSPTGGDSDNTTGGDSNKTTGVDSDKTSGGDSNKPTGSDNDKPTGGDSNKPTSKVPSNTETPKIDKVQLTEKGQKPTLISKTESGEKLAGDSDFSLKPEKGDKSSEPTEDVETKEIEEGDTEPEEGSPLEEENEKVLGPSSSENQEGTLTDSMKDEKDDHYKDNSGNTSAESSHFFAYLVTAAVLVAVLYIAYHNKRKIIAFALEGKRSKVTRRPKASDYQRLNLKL

Variant | effect of a mutation on the interaction
G270A | decreasing interaction
D269A | decreasing interaction
M209A | decreasing interaction
F265A | decreasing interaction

Variants of: B1
Settings: with ap2b1_human AP2B1, P63010
Sequence of ap2b1_human AP2B1, P63010 (P63010 whole entry): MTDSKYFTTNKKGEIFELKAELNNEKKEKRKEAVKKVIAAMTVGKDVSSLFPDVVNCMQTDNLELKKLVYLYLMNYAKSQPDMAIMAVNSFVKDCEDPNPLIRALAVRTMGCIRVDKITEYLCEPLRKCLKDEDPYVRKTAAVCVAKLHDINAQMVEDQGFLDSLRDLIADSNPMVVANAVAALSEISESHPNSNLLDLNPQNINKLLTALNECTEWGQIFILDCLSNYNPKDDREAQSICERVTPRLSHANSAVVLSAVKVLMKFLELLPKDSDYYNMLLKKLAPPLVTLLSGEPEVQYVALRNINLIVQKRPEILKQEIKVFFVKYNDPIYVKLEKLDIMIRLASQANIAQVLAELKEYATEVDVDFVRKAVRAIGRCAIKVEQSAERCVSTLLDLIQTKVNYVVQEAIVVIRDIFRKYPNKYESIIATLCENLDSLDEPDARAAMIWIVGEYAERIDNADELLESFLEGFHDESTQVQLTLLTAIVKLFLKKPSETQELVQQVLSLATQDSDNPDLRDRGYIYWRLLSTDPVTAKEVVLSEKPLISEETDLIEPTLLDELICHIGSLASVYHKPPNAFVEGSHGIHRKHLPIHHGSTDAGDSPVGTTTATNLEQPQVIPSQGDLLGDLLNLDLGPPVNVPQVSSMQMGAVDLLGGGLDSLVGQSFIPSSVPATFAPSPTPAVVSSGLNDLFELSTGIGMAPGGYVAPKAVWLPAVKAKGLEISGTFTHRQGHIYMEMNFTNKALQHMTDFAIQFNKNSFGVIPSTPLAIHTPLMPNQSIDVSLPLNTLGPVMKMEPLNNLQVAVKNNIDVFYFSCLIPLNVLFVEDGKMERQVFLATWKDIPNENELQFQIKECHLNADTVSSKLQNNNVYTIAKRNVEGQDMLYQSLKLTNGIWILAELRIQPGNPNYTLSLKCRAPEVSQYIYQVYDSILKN

Variant | effect of a mutation on the interaction
Y83A | decreasing interaction
L82A | decreasing interaction
I96A | decreasing interaction
